This experiment addresses T1, Parkin R0RBR module (RING0, RING1, IBR, RING2), wild type (rat), Q9JK66.
T1 chain: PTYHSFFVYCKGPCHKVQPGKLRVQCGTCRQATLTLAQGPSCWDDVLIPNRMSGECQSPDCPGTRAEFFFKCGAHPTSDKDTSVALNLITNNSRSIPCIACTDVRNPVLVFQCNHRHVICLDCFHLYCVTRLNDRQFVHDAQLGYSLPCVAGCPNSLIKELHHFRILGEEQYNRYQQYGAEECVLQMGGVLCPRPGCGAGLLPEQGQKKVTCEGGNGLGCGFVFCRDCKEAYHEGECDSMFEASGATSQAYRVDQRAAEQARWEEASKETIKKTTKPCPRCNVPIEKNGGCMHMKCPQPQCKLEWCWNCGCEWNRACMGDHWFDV
Description: ITC; R0RBR (wild type or L266K) titrated with Ubl or pUbl; 20°C; 50 mM Tris–HCl pH 7.4, 150 mM NaCl, 1 mM TCEP; stoichiometry determined experimentally.

B1: Parkin Ubl domain (ubiquitin-like domain), unmodified (domain or fragment)
chain: MIVFVRFNSSYGFPVEVDSDTSIFQLKEVVAKRQGVPADQLRVIFAGKELQNHLTVQNCDLEQQSIVHIVQRPQRK
modifications: not checked
B1 showed a Kd of 16 µM.

Values taken from PMC4609182.
